Measurements taken from PMC11648244, “Substrate specificity and kinetic mechanism of 3β-hydroxy- Δ ^5-C27-steroid oxidoreductase” (The Journal of Biological Chemistry, 2024).

Tests used:
[1] = molecular target: 3β-HSD dehydrogenase type I (HSD3B1) (UniProt P14060); assay: cross-linking; chemical crosslinking in solution, bands on a gel
[2] = molecular target: T1, 3β-hydroxy-Δ^5-C27-steroid oxidoreductase (HSD3B7) (Homo sapiens, UniProt Q9H2F3); assay: FRET from intrinsic tryptophan fluorescence to NADH, Morrison fit; assay type: binding
T1 construct: WT, N-terminal 6x histidine tag
T1 sequence (Q9H2F3 1-369): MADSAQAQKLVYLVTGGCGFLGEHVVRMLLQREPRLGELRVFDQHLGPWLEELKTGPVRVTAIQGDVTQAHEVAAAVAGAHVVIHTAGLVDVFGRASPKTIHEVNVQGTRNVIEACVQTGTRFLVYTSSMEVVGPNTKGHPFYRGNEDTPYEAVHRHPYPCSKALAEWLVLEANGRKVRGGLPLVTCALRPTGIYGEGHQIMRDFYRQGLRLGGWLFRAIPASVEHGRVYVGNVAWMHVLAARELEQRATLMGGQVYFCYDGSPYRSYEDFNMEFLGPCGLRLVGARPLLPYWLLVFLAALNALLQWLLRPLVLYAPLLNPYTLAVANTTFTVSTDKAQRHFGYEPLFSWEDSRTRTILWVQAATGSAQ

[3] = molecular target: 3β-HSD dehydrogenase type II (HSD3B2) (UniProt P26439); assay: cross-linking; chemical crosslinking in solution, bands on a gel
[4] = substrate: CC(CCCC(C)C1CCC2C3C(O)C=C4C[C@@H](O)CC[C@]4(C)C3CC[C@]12C)C(=O)O; assay: steady-state kinetics of purified enzyme (NAD(P)H-Glo), Km; assay type: biochemical, Homo sapiens; design: kcat / Vmax: unit not given here; conditions: NAD+ predicted oxysterol pocket; F93, F205, I201 (docking)
[5] = substrate: C[C@H](CCCC(C)(C)O)[C@H]1CC[C@H]2[C@@H]3[C@H](O)C=C4C[C@@H](O)CC[C@]4(C)[C@H]3CC[C@]12C; assay: as above; assay type: biochemical, Homo sapiens; design: kcat / Vmax: unit not given here; conditions: NAD+ predicted oxysterol pocket; F93, F205, I201 (docking)
[6] = substrate: C[C@@H](CO)CCC[C@@H](C)[C@H]1CC[C@H]2[C@@H]3[C@H](O)C=C4C[C@@H](O)CC[C@]4(C)[C@H]3CC[C@]12C; assay: as above; assay type: biochemical, Homo sapiens; design: kcat / Vmax: unit not given here; conditions: NAD+ predicted oxysterol pocket; F93, F205, I201, Q208 (docking)
[7] = substrate: CC(C)CCC[C@@H](C)[C@H]1CC[C@H]2[C@@H]3[C@H](O)C=C4C[C@@H](O)CC[C@]4(C)[C@H]3CC[C@]12C; assay: as above; assay type: biochemical, Homo sapiens; design: kcat / Vmax: unit not given here; conditions: NAD+ predicted oxysterol pocket; F93, F205, I201; near Y-S-N-K tetrad (docking)
purified protein = substrate: NC(=O)c1ccc[n+]([C@@H]2O[C@H](COP(=O)([O-])OP(=O)(O)OC[C@H]3O[C@@H](n4cnc5c(N)ncnc54)[C@H](O)[C@@H]3O)[C@@H](O)[C@H]2O)c1; assay: purified protein; assay type: biochemical, Homo sapiens; conditions: varied: cofactor
[8] = substrate: CC(C)CCC[C@@H](C)[C@H]1CC[C@H]2[C@@H]3[C@H](O)C=C4C[C@@H](O)CC[C@]4(C)[C@H]3CC[C@]12C; assay: steady-state kinetics of purified mutant, Km; assay type: biochemical, Homo sapiens; conditions: NAD+ predicted oxysterol binding pocket
[9] = substrate: CC(C)CCC[C@@H](C)[C@H]1CC[C@H]2[C@@H]3[C@H](O)C=C4C[C@@H](O)CC[C@]4(C)[C@H]3CC[C@]12C; assay: steady-state kinetics of purified mutant, apparent Km; assay type: biochemical, Homo sapiens; conditions: NAD+ predicted oxysterol binding pocket
[10] = conserved Rossmann fold domain (docking), binds first

“3β-HSD dehydrogenase type I (HSD3B1) (from UniProt P14060 1-373) (enzyme)” gave a stoichiometry N [1] of 2.

`NC(=O)C1=CN([C@@H]2O[C@H](COP(=O)(O)OP(=O)(O)OC[C@H]3O[C@@H](n4cnc5c(N)ncnc54)[C@H](O)[C@@H]3O)[C@@H](O)[C@H]2O)C=CC1` [NADH] showed a Kd [2] of 780 nM.

Molecule “3β-HSD dehydrogenase type II (HSD3B2) (from UniProt P26439 1-372) (enzyme)” has a stoichiometry N [3] of 2.

B1: 3β-hydroxy-Δ^5-C27-steroid oxidoreductase (HSD3B7) (Homo sapiens) (protein)
chain: MADSAQAQKLVYLVTGGCGFLGEHVVRMLLQREPRLGELRVFDQHLGPWLEELKTGPVRVTAIQGDVTQAHEVAAAVAGAHVVIHTAGLVDVFGRASPKTIHEVNVQGTRNVIEACVQTGTRFLVYTSSMEVVGPNTKGHPFYRGNEDTPYEAVHRHPYPCSKALAEWLVLEANGRKVRGGLPLVTCALRPTGIYGEGHQIMRDFYRQGLRLGGWLFRAIPASVEHGRVYVGNVAWMHVLAARELEQRATLMGGQVYFCYDGSPYRSYEDFNMEFLGPCGLRLVGARPLLPYWLLVFLAALNALLQWLLRPLVLYAPLLNPYTLAVANTTFTVSTDKAQRHFGYEPLFSWEDSRTRTILWVQAATGSAQ
notes: WT, N-terminal 6x histidine tag
In the case of B1, the Km [4] is reported as 8.6 µM, the Vmax [4] is reported as 551.8 (513.5, 593.2) and the kcat [4] is reported as 23.2 (21.6, 24.9). The kcat/Km [4] was 45000 ± 17000 M⁻¹ s⁻¹, the Km [5] was 18.3 µM and the Vmax [5] was 901.8 (785.3, 1044). For the same molecule, the kcat [5] was 37.9 (33.0, 43.9), the kcat/Km [5] was 35000 ± 12000 M⁻¹ s⁻¹ and the Km [6] was 3.8 µM. The Vmax [6] was 532.0 (493.0, 573.4), the kcat [6] was 22.4 (20.7, 24.1) and the kcat/Km [6] was 98000 ± 22000 M⁻¹ s⁻¹. For the same molecule, the Km [7] was 17.4 µM, the Vmax [7] was 735 (669.5, 812.3) and the kcat [7] was 30.9 (28.1, 34.1). For the same molecule, the kcat/Km [7] was 30000 ± 10000 M⁻¹ s⁻¹, the Km (purified protein; [10]) was 45.8 µM and the Vmax (purified protein; [10]) was 587.2 (550.0, 628.7). For the same molecule, the kcat (purified protein; [10]) was 24.7 (23.1, 26.4) and the kcat/Km (purified protein; [10]) was 9000 ± 3200 M⁻¹ s⁻¹.

B2: 3β-hydroxy-Δ^5-C27-steroid oxidoreductase (HSD3B7) (Homo sapiens; F205A) (protein)
chain: MADSAQAQKLVYLVTGGCGFLGEHVVRMLLQREPRLGELRVFDQHLGPWLEELKTGPVRVTAIQGDVTQAHEVAAAVAGAHVVIHTAGLVDVFGRASPKTIHEVNVQGTRNVIEACVQTGTRFLVYTSSMEVVGPNTKGHPFYRGNEDTPYEAVHRHPYPCSKALAEWLVLEANGRKVRGGLPLVTCALRPTGIYGEGHQIMRDAYRQGLRLGGWLFRAIPASVEHGRVYVGNVAWMHVLAARELEQRATLMGGQVYFCYDGSPYRSYEDFNMEFLGPCGLRLVGARPLLPYWLLVFLAALNALLQWLLRPLVLYAPLLNPYTLAVANTTFTVSTDKAQRHFGYEPLFSWEDSRTRTILWVQAATGSAQ
notes: F205A mutant
With B2 the Km [8] was 11.2 µM, the Vmax [8] was 76.6 (62.5, 96.0) and the kcat [8] was 1.5 (1.3, 1.9). For the same molecule, the kcat/Km [8] was 2200 ± 700 M⁻¹ s⁻¹, the Km (purified protein) was 93.8 µM and the Vmax (purified protein) was 288.2 (255.0, 330.6). For the same molecule, the kcat (purified protein) was 5.8 (5.1, 6.6) and the kcat/Km (purified protein) was 1000 ± 400 M⁻¹ s⁻¹.

B3: 3β-hydroxy-Δ^5-C27-steroid oxidoreductase (HSD3B7) (Homo sapiens; F93A) (protein)
chain: MADSAQAQKLVYLVTGGCGFLGEHVVRMLLQREPRLGELRVFDQHLGPWLEELKTGPVRVTAIQGDVTQAHEVAAAVAGAHVVIHTAGLVDVAGRASPKTIHEVNVQGTRNVIEACVQTGTRFLVYTSSMEVVGPNTKGHPFYRGNEDTPYEAVHRHPYPCSKALAEWLVLEANGRKVRGGLPLVTCALRPTGIYGEGHQIMRDFYRQGLRLGGWLFRAIPASVEHGRVYVGNVAWMHVLAARELEQRATLMGGQVYFCYDGSPYRSYEDFNMEFLGPCGLRLVGARPLLPYWLLVFLAALNALLQWLLRPLVLYAPLLNPYTLAVANTTFTVSTDKAQRHFGYEPLFSWEDSRTRTILWVQAATGSAQ
notes: F93A mutant
B3 was tested, and the Km [9] was 58.2 µM, the Vmax [9] was 286.5 (224.2, 405.0) and the kcat [9] was 14.3 (11.2, 20.3). The kcat/Km [9] was 4100 ± 2000 M⁻¹ s⁻¹.
